This assay deals with β6 Δ746-764 deletion mutant expressed in SW480 cells (human) (UniProt P06756). Description: β6 immunoprecipitation (R6G9) from SW480 transfectants, blot with E10 (FIG. 27B).
β6 Δ746-764 deletion mutant expressed in SW480 cells (human), sequence (chain, as listed by the source mutant, chain 1 of 2): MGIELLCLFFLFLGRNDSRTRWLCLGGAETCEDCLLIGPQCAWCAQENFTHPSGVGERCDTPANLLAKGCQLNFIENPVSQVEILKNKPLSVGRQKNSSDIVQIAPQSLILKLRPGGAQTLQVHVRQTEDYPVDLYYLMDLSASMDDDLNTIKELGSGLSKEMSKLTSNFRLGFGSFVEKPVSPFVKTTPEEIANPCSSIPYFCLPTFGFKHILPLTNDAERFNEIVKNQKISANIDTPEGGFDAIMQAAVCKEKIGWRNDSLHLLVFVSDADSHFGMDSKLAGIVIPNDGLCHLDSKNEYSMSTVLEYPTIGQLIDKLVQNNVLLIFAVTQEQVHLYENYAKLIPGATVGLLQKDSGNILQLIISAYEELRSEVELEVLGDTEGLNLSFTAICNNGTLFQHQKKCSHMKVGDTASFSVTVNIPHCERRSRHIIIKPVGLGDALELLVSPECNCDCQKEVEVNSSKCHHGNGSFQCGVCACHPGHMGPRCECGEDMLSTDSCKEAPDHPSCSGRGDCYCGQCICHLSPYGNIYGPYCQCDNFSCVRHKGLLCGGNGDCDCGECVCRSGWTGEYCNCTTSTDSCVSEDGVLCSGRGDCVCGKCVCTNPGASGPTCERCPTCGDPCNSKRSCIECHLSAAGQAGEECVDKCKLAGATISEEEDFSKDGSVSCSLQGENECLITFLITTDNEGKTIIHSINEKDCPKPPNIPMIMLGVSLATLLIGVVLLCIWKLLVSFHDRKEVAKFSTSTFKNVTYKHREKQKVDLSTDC
β6 Δ746-764 deletion mutant expressed in SW480 cells (human), sequence (P06756 31-1048, stated change not applied, chain 2 of 2): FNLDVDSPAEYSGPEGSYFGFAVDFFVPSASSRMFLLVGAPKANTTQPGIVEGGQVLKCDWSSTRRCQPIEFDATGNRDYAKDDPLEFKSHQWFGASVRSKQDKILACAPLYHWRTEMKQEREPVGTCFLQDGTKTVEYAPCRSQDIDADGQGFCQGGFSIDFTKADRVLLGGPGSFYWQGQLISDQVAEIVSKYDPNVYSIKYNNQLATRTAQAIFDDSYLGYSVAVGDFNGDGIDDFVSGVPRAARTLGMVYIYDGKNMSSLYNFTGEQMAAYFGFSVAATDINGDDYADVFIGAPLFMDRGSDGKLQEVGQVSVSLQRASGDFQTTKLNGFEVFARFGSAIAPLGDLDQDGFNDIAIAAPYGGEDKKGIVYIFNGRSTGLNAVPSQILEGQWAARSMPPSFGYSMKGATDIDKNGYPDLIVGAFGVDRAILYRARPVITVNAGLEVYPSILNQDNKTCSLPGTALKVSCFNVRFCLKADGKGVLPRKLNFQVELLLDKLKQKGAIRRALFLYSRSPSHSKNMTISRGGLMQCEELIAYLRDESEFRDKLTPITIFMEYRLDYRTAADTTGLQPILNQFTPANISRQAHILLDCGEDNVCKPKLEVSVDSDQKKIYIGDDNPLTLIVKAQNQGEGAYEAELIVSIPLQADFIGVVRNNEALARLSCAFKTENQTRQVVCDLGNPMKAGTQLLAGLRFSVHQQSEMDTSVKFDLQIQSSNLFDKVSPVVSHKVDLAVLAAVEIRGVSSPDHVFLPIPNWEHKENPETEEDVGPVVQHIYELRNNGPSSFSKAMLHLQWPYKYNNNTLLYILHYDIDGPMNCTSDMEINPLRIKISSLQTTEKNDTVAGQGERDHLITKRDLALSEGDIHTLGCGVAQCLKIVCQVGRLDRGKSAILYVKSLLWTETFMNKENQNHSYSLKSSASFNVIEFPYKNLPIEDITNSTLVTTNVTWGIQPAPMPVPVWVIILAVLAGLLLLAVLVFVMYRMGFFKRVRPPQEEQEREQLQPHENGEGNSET

Consider “ERK (endogenous ERK1/2, band at the position of ERK2, in lysates of human cell lines) (from UniProt P28482 2-360)”, for which the reduction of β6-bound ERK against the wild type receptor is > 75%.
